From patent US20240254195A1 (35PHARMA, published 2024) come the findings set out here.

Holding throughout (assay): cell-based or functional assay
One assay deals with T1, BMP-10 (UniProt O95393 317-424).
T1 sequence (looked up): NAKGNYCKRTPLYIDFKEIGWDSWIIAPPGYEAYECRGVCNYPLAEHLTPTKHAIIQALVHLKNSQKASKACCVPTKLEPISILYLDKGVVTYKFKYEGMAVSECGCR

The target of another assay is T2, BMP-9 (UniProt Q9UK05 320-429).
T2 sequence (looked up): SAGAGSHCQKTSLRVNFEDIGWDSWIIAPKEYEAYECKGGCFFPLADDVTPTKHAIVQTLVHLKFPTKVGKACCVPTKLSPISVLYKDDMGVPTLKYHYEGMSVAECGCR

In the next assay the target is T3, GDF-11 (UniProt O95390 299-407).
T3 sequence (looked up): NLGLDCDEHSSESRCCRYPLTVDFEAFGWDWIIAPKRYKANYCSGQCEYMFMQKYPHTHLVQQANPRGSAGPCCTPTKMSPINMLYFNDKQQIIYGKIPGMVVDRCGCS

For another assay, the target named is T4, GDF-8 (UniProt O14793 267-375).
T4 sequence (looked up): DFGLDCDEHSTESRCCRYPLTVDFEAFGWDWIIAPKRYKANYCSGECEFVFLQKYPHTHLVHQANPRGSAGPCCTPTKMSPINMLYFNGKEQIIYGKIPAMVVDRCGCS

Assay [1] has as its target T5, recombinant human activin A (human, UniProt P08476 311-426).
T5 sequence (looked up): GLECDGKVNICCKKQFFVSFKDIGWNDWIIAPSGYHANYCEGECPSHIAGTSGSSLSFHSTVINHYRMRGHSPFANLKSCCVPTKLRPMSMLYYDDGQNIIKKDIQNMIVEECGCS

For the next assay, the target named is T6, activin B (UniProt P09529 293-407).
T6 sequence (looked up): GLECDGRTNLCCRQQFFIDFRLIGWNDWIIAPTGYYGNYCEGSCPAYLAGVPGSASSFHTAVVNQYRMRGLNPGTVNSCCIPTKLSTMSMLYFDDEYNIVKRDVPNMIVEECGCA

B1: P1375 (Fc fusion)
chain: ETRECIYYNANWELERTNQSGLERCEGEQDKRWHCYASWRNSSGTIELVKKGCWLDDFNCYDRQECVATEENPQVYFCCCEGNFCNERFTHLPEAGGPEVTYEPPPTGGGGSGGGGSGGGGSGGGGTHTCPPCPAPELLGGPSVFLFPPKPKDTLYITREPEVTCVVVDVSHEDPEVKFNWYVDGVEVHNAKTKPREEQYNSTYRVVSVLTVLHQDWLNGKEYKCKVSNKALPAPIEKTISKAKGQPREPQVYTLPPSRDELTKNQVSLTCLVKGFYPSDIAVEWESNGQPENNYKTTPPVLDSDGSFFLYSKLTVDKSRWQQGNVFSCSVMHEALHNHYTQKSLSLSPG
For B1, in the assay with BMP-10, the “BMP-10 IC50” value is > 100 nM. The “BMP-9 IC50” value in the assay with BMP-9 was > 1000 nM. Besides, the “GDF-11 IC50” value with GDF-11 is 0.39 nM. Also, the “GDF-8 IC50” value with GDF-8 worked out at 0.33 nM. Further, the “Activin A IC50” value in assay [1] is 0.53 nM. Further, the “Activin B IC50” value with activin B came out at 2 nM.

B2: P1372 (Fc fusion)
chain: ETRECIYYNANWELERTNQSGLERCEGEQDKRWHCYASWRNSSGTIELVKKGCWLDDFNCYDRQECVATEENPQVYFCCCEGNFCNERFTHLPEAGGPEVTYEPPPTGGGGSGGGGSGGGGTHTCPPCPAPELLGGPSVFLFPPKPKDTLYITREPEVTCVVVDVSHEDPEVKFNWYVDGVEVHNAKTKPREEQYNSTYRVVSVLTVLHQDWLNGKEYKCKVSNKALPAPIEKTISKAKGQPREPQVYTLPPSRDELTKNQVSLTCLVKGFYPSDIAVEWESNGQPENNYKTTPPVLDSDGSFFLYSKLTVDKSRWQQGNVFSCSVMHEALHNHYTQKSLSLSPG
Regarding B2, the “BMP-10 IC50” value with BMP-10 is > 100 nM. Besides, in the assay with BMP-9, the “BMP-9 IC50” value is > 1000 nM. The “GDF-11 IC50” value in the assay with GDF-11 turned out to be 0.53 nM. In the assay with GDF-8, the “GDF-8 IC50” value was determined as 0.18 nM. Besides, the “Activin A IC50” value in assay [1] came out at 0.56 nM. Besides, in the assay with activin B, the “Activin B IC50” value was 2 nM.
